Target: T1, Human PD-L1 (WT) (human, UniProt Q9NZQ7 19-127, limits assumed)
T1 construct: also called human PD-L1 N-terminal IgV domain
Test: affinity measurement, method not stated

T1 sequence (Q9NZQ7 19-127 limits assumed): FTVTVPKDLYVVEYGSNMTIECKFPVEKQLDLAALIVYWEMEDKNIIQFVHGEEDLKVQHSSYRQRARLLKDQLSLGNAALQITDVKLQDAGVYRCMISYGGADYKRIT

Kd: 5.92 nM
B1: PD-L1 ISVD-9 (VHH)
VHH: QVQLVESGGGLVQPGGSLRLSCAASGKMSSRRCMAWFRQAPGKERERVAKLLTTSGSTYLADSVKGRFTISRDNSKNTVYLQMNSLRAEDTAVYYCAADSFEDPTCTLVTSSGAFQYWGQGTLVTVSS
notes: also called ISVD specific for PD-L1

From patent US20240101707A1, “A METHOD OF PREVENTING, ALLEVIATING OR TREATING A TUMOR” (JIANGSU ALPHAMAB BIOPHARMACEUTICALS CO., LTD., priority 2021, published 2024)
